Tests used:
[1] = target: T1, human LGR7 (Homo sapiens, UniProt Q9HBX9); test: Radioligand binding assay, 125I-relaxin-2 tracer, COS-7 cells expressing LGR7; parameters: expressed in transfected cells
T1 sequence (Q9HBX9 1-757): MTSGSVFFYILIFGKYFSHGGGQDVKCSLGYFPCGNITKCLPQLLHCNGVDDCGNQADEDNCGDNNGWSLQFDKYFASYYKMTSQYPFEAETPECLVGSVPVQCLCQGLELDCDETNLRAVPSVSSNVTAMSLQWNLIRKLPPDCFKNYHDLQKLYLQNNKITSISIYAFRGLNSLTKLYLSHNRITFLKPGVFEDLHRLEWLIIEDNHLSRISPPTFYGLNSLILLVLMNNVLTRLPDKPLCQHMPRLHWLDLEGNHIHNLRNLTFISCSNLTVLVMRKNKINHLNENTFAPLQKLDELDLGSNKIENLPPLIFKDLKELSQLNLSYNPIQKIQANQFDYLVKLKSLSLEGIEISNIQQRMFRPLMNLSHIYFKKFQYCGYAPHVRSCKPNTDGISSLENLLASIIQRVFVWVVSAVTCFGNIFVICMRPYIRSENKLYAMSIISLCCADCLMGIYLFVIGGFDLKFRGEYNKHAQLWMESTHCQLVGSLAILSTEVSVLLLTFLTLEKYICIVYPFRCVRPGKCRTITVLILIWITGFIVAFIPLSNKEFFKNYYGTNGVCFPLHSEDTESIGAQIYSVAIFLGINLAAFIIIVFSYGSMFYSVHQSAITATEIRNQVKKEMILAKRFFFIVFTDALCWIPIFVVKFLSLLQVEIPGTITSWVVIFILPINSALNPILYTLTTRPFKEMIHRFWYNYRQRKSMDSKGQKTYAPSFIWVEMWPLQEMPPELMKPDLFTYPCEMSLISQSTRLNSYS
Text: (§1) COS-7 cells in 24-well tissue culture plates transiently expressing GPCR135, GPCR142 or LGR7 were used in radioligand binding assays as described by Liu et al., 2005a, J. Biol. Chem., 280:292-300. ^125I-Relaxin-3/INSL5 (^125I-R3/I5), a radiolabeled chimeric peptide with the human relaxin-3 B-chain and the human INSL5 A-chain (Liu et al., 2005b), was used at a final concentration of 50 pM as the tracer to characterize the binding properties of all truncated relaxin-3 peptides for GPCR135 and GPCR142. ^125I-relaxin-2 (PerkinElmer Biosciences, Boston) was used at a final concentration of 50 pM to characterize the binding properties of the truncated peptides for the relaxin receptor (LGR7). The results were analyzed by GraphPad Prism 4.0 software (Graphpad, San Diego). The IC50 values, which are the ligand concentrations that inhibited 50% of the maximum specific binding, were then calculated.

[2] = target: human GPCR142 (Homo sapiens, UniProt Q8TDU9); test: Radioligand binding assay, 125I-R3/I5 tracer, COS-7 cells expressing GPCR142; parameters: expressed in transfected cells; host or cells: COS-7
Chain of human GPCR142 (Q8TDU9 whole entry): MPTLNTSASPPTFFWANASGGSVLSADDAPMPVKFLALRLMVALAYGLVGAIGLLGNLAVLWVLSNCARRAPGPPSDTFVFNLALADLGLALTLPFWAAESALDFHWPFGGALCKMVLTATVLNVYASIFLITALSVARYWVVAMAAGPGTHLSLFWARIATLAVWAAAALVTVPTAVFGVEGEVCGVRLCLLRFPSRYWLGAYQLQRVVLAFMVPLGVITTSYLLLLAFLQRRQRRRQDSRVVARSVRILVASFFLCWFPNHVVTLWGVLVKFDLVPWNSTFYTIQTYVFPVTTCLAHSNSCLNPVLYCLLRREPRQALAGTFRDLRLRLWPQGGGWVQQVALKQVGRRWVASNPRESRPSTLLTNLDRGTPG
Text: as §1

[3] = target: T1, human LGR7; test: Agonist assay, stimulation of β-gal expression in SK-N-MC/CRE-β-gal cells; type: cell-based; parameters: expressed in transfected cells; host or cells: SK-N-MC/CRE-β-gal
Procedure: FIG. 1 provides a characterization of mutant relaxin-3 peptides as ligands for human GPCR135, GPCR142, and LGR7. The truncated peptides were tested for their GPCR135 and GPCR142 agonist activity using SK-N-MC/CRE-β-gal cells expressing either human GPCR135 (A) or GPCR142 (B). Agonists for GPCR135 or GPCR142 inhibit forskolin induced β-galactosidase (β-gal) expression. The LGR7 agonist activity of the truncated peptides was tested using SK-N-MC/CRE-β-gal cells expressing Gαs-linked human LGR7 (C). Human relaxin-3 was used as positive control in both cases. β-gal expression was measured by colorimetric assay using CPRG as the substrate and reading the absorbance at 570 nm.
All peptides were tested for their GPCR135, GPCR142, and LGR7 agonist activities in SK-N-MC/CRE cells expressing the relevant receptors as described by Liu et al., 2005b. […] An increase in cAMP concentration in these cells is associated with increased β-gal expression, which can be measured using Chlorophenol Red-β-D-Galactopyranoside (CRGP) as a substrate and reading the optical absorbance at 570 nm. […] The results were analyzed using GraphPad Prism 4.0 software. […] The agonism and antagonism of peptides for rat LGR7 was assayed using a cAMP luminescence assay. […] The cAMP in the cells was measured with a cAMP detection kit (DiscoveRx HitHunter, Cat. #90-0041) according to the manufacturer's protocol. […]

“R3(BΔ23-27)R: Relaxin-3 mutant: B-chain SEQ ID NO:15 (Gly23-Trp27 deleted plus C-terminal Arg), relaxin-3 A-chain SEQ ID NO:13” was tested, and the “affinity of human LGR7” value [1] was “low affinity”, the “affinity of human GPCR142” value [2] was “high affinities” and the EC50 ([3]; human LGR7 agonist response, mean ± SEM, NA = no agonist activity observed) was > 1000 nM. The “agonist activity at human LGR7” value ([3]; stimulation of β-gal expression) was “no LGR7 agonist activity”.

From patent publication US8299028B2, “Chimeric peptide antagonist for GPCR135 or GPCR142” (Janssen Pharmaceutica NV, priority 2007, dated 2012)
